Target: human CD33 (human, UniProt P20138 18-364)
Test: cell-based or functional assay

Sequence of human CD33 (P20138 18-364): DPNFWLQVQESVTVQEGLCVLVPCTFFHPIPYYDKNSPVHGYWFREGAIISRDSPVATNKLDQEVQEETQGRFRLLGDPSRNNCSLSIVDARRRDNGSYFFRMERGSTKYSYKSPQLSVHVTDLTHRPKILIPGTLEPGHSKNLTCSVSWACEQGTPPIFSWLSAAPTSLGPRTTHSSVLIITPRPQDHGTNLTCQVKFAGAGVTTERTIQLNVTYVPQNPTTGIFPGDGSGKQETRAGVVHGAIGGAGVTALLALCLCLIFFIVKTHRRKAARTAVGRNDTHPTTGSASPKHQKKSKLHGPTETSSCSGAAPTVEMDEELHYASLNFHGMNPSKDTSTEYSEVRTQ

IC50 lysis of KG-1 cells with human T cells, E:T 5:1, 24 h | Binder
~0.005 nM | CD33/CD3 2×2 T-cell engager 19 (bispecific antibody) DIQMTQSPSSLSASVGDRVTITCRSSTGAVTTSNYANWVQQKPGKAPKALIGGTNKRAPGVPSRFSGSLIGDKATLTISSLQPEDFATYYCALWYSNLWVFGQGTKVEIKGGSGGSQVQLVQSGAEVKKPGASVKVSCKASGYTFTSYYMHWVRQAPGQGLEWMGIINPSGGSTSYAQKFQGRVTMTRDTSTSTVYMELSSLRSEDTAVYYCARDVVPAAIDYYGMDVWGQGTTVTVSSGGSGQSVLTQPPSASGTPGQRVTISCSGSSSNIGSNTVNWYQQLPGTAPKLLIYSDNQRPSGVPDRFSGSKSGSSASLAISGLQSDDEADYYCATWDDSLNGAVFGGGTKLTVLGGSGGSEVQLVESGGGLVQPGGSLRLSCAASGFTFSTYAMNWVRQAPGKGLEWVGRIRSKYNNYATYYADSVKDRFTISRDDSKNSLYLQMNSLKTEDTAVYYCARHGNFGNSYVSYFAYWGQGTLVTVSSAAAGSHHHHHH

Target: human CD3 (human, UniProt P07766 23-207; P09693 23-182; P04234 22-171; P20963 22-164)
Sequence (P07766 23-207, chain 1 of 4): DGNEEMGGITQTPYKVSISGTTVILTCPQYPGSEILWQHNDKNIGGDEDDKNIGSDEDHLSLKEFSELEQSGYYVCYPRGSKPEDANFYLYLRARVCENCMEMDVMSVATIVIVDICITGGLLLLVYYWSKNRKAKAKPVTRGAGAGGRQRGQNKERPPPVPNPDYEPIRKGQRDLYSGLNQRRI
Sequence (P09693 23-182, chain 2 of 4): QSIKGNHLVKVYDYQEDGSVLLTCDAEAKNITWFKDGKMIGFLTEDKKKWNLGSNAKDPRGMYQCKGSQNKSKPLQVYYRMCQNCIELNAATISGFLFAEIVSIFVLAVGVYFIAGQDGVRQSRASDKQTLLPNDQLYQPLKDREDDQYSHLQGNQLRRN
Sequence (P04234 22-171, chain 3 of 4): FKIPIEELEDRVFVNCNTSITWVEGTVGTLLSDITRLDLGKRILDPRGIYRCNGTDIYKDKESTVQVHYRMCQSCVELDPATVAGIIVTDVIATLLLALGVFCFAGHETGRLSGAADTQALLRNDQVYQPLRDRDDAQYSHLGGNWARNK
Sequence (P20963 22-164, chain 4 of 4): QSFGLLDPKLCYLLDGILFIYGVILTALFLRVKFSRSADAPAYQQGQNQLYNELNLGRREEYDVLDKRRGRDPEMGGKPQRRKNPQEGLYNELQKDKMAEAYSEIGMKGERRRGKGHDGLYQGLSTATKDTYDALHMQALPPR
Test: cell-based or functional assay

CD25 Induction EC50 (PBMC, 24 h) | CD69 Induction EC50 (PBMC, 24 h) | Binder
0.041 nM | 0.017 nM | CD33/CD3 2×2 T-cell engager 23 (bispecific antibody) DIQMTQSPSSLSASVGDRVTITCRSSTGAVTTSNYANWVQQKPGKAPKGLIGGTNKRAPGVPSRFSGSLIGTDFTLTISSLQPEDFATYYCALWYSNLWVFGQGTKVEIKGGSGGSQVQLVQSGAEVKKPGSSVKVSCKASGGTFSSYGISWVRQAPGQGLEWMGGIIPIFGSAHYAQKFQGRVTITADESTSTAYMELSSLRSEDTAVYYCAREYYYDSSEWAFDIWGQGTLVTVSSGGSGQSVLTQPPSASGTPGQRVTISCSGSSSNIGSNTVKWYQQLPGTAPKLLIYSNNQRSSGVPDRFSGSKSGSSASLAISGLQSEDEADYYCAAWDDSLNGYVFGGGTKLTVLGGSGGSEVQLVESGGGLVQPGGSLRLSCAASGFTFSTYAMNWVRQAPGKGLEWVGRIRSKYNNYATYYADSVKDRFTISRDDSKNSLYLQMNSLKTEDTAVYYCARHGNFGNSYVSWFAYWGQGTLVTVSS
– | 0.225 nM | CD33/CD3 2×2 T-cell engager 21 (bispecific antibody) DIQMTQSPSSLSASVGDRVTITCRSSTGAVTTSNYANWVQQKPGKAPKALIGGTNKRAPGVPSRFSGSLIGDKATLTISSLQPEDFATYYCALWYSNLWVFGQGTKVEIKGGSGGSQVQLVQSGAEVKKPGSSVKVSCKASGGTFSSYAISWVRQAPGQGLEWMGGIYPIFGSANYAQKFQGRVTITADESTSTAYMELSSLRSEDTAVYYCAREYYYDSSEWAFDIWGQGTLVTVSSGGSGQSVLTQPPSASGTPGQRVTISCSGSSSNIGSNIVNWYQQLPGTAPKLLIYSNNQRPSGVPDRFSGSKSGTSASLAISGLQSEDEADYYCAAWDDSLKGYVFGGGTKLTVLGGSGGSEVQLVESGGGLVQPGGSLRLSCAASGFTFSTYAMNWVRQAPGKGLEWVGRIRSKYNNYATYYADSVKDRFTISRDDSKNSLYLQMNSLKTEDTAVYYCARHGNFGNSYVSYFAYWGQGTLVTVSSAAAGSHHHHHH
0.01 nM | 0.004 nM | CD33/CD3 2×2 T-cell engager 22 (bispecific antibody) DIQMTQSPSSLSASVGDRVTITCRSSTGAVTTSNYANWVQQKPGKAPKALIGGTNKRAPGVPSRFSGSLIGDKATLTISSLQPEDFATYYCALWYSNLWVFGQGTKVEIKGGSGGSQVQLVQSGAEVKKPGSSVKVSCKASGGTFSSYGISWVRQAPGQGLEWMGGIIPIFGSAHYAQKFQGRVTITADESTSTAYMELSSLRSEDTAVYYCAREYYYDSSEWAFDIWGQGTLVTVSSGGSGQSVLTQPPSASGTPGQRVTISCSGSSSNIGSNTVKWYQQLPGTAPKLLIYSNNQRSSGVPDRFSGSKSGSSASLAISGLQSEDEADYYCAAWDDSLNGYVFGGGTKLTVLGGSGGSEVQLVESGGGLVQPGGSLRLSCAASGFTFSTYAMNWVRQAPGKGLEWVGRIRSKYNNYATYYADSVKDRFTISRDDSKNSLYLQMNSLKTEDTAVYYCARHGNFGNSYVSYFAYWGQGTLVTVSSAAAGSHHHHHH
– | 0.057 nM | CD33/CD3 2×2 T-cell engager 24 (bispecific antibody) DIQMTQSPSSLSASVGDRVTITCRSSTGAVTTSNYANWVQQKPGKAPKALIGGTNKRAPGVPSRFSGSLIGDKATLTISSLQPEDFATYYCALWYSNLWVFGQGTKVEIKGGSGGSQVQLVQSGAEVKKPGSSVKVSCKASGGTFDSYAISWVRQAPGQGLEWMGGIIPIFGSAHYSQKFQGRVTITADESTSTAYMELSSLRSEDTAVYYCAREYYYDSSEWAFDIWGQGTLVTVSSGGSGQSVLTQPPSASGTPGQRVTISCSGSSSNIGDNVVNWYQQLPGTAPKLLIYSTNKRPSGVPDRFSGSKSGSSASLAISGLQSEDEADYYCAAWDDSLSAYVFGGGTKLTVLGGSGGSEVQLVESGGGLVQPGGSLRLSCAASGFTFSTYAMNWVRQAPGKGLEWVGRIRSKYNNYATYYADSVKDRFTISRDDSKNSLYLQMNSLKTEDTAVYYCARHGNFGNSYVSYFAYWGQGTLVTVSSAAAGSHHHHHH
0.03 nM | 0.114 nM | CD33/CD3 2×2 T-cell engager 17 (bispecific antibody) DIQMTQSPSSLSASVGDRVTITCRSSTGAVTTSNYANWVQQKPGKAPKALIGGTNKRAPGVPSRFSGSLIGDKATLTISSLQPEDFATYYCALWYSNLWVFGQGTKVEIKGGSGGSQVQLVQSGAEVKKPGESLKISCKGSGYSFTSYWIGWVRQMPGKGLEWMGIIYPGDSDTRYSPSFQGQVTISADKSISTAYLQWSSLKASDTAMYYCARHKRGSDAFDIWGQGTTVTVSSGGSGQSVLTQPPSVSGAPGQRVTISCTGSSSNIGAGYDVHWYQQLPGTAPKLLIYGNSNRPSGVPDRFSGSKSGTSASLAITGLQAEDEADYYCQSYDSSLSDVVFGGGTKLTVLGGSGGSEVQLVESGGGLVQPGGSLRLSCAASGFTFSTYAMNWVRQAPGKGLEWVGRIRSKYNNYATYYADSVKDRFTISRDDSKNSLYLQMNSLKTEDTAVYYCARHGNFGNSYVSYFAYWGQGTLVTVSSAAAGSHHHHHH
0.009 nM | 0.005 nM | CD33/CD3 2×2 T-cell engager 19 (bispecific antibody) DIQMTQSPSSLSASVGDRVTITCRSSTGAVTTSNYANWVQQKPGKAPKALIGGTNKRAPGVPSRFSGSLIGDKATLTISSLQPEDFATYYCALWYSNLWVFGQGTKVEIKGGSGGSQVQLVQSGAEVKKPGASVKVSCKASGYTFTSYYMHWVRQAPGQGLEWMGIINPSGGSTSYAQKFQGRVTMTRDTSTSTVYMELSSLRSEDTAVYYCARDVVPAAIDYYGMDVWGQGTTVTVSSGGSGQSVLTQPPSASGTPGQRVTISCSGSSSNIGSNTVNWYQQLPGTAPKLLIYSDNQRPSGVPDRFSGSKSGSSASLAISGLQSDDEADYYCATWDDSLNGAVFGGGTKLTVLGGSGGSEVQLVESGGGLVQPGGSLRLSCAASGFTFSTYAMNWVRQAPGKGLEWVGRIRSKYNNYATYYADSVKDRFTISRDDSKNSLYLQMNSLKTEDTAVYYCARHGNFGNSYVSYFAYWGQGTLVTVSSAAAGSHHHHHH
0.116 nM | 0.074 nM | CD33/CD3 2×2 T-cell engager 05 (bispecific antibody) DIQMTQSPSSLSASVGDRVTITCRSSTGAVTTSNYANWVQQKPGKAPKGLIGGTNKRAPGVPARFSGSGSGTDFTLTISSLQPEDFATYYCALWYSNLWVFGQGTKVEIKGGSGGSQVQLVQSGAEVKKPGASVKVSCKASGYTFTSYDINWVRQAPGQGLEWMGWMNPNSGNTGFAQKFQGRVTMTRDTSTSTVYMELSSLRSEDTAVYYCARDRANTDYSFGMDVWGQGTLVTVSSGGSGGQSVLTQPPSASGTPGQRVTISCSGSRSNIGSNTVNWYQQLPGTAPKLLIYGNNQRPSGVPDRFSGSKSGTSASLAISGLQSEDEADYYCATWDDSLIGWVFGGGTKLTVLGGSGGSEVQLVESGGGLVQPGGSLRLSCAASGFTFSTYAMNWVRQAPGKGLEWVGRIRSKYNNYATYYADSVKDRFTISRDDSKNSLYLQMNSLKTEDTAVYYCARHGNFGNSYVSWFAYWGQGTLVTVSSAAAGSHHHHHH
0.039 nM | 0.021 nM | CD33/CD3 2×2 T-cell engager 06 (bispecific antibody) DIQMTQSPSSLSASVGDRVTITCRSSTGAVTTSNYANWVQQKPGKAPKGLIGGTNKRAPGVPARFSGSGSGTDFTLTISSLQPEDFATYYCALWYSNLWVFGQGTKVEIKGGSGGSQVQLVQSGAEVKKPGASVKVSCKASGYTFTSYDINWVRQAPGQGLEWMGWMNPNSGNTGFAQKFQGRVTMTRDTSTSTVYMELSSLRSEDTAVYYCARDRANTDYSLGMDVWGQGTLVTVSSGGSGGQSVLTQPPSASGTPGQRVTISCSGSRSNIGSNTVNWYQQLPGTAPKLLIYGNNQRPSGVPDRFSGSKSGTSASLAISGLQSEDEADYYCATWDDSLIGWVFGGGTKLTVLGGSGGSEVQLVESGGGLVQPGGSLRLSCAASGFTFSTYAMNWVRQAPGKGLEWVGRIRSKYNNYATYYADSVKDRFTISRDDSKNSLYLQMNSLKTEDTAVYYCARHGNFGNSYVSWFAYWGQGTLVTVSSAAAGSHHHHHH

Source: patent publication US20210324076A1 (AMPHIVENA THERAPEUTICS, published 2021)
